Changes are numbered by the printed parent chain. In names and notes the source's numbering stands.
B1: h224G11 (humanized 224G11) (antibody, human IgG4, V domains shown)
VH: QVQLVQSGAEVKKPGASVKVSCKASGYIFTAYTMHWVRQAPGQGLEWMGWIKPNNGLANYAQKFQGRVTMTRDTSISTAYMELSRLRSDDTAVYYCARSEITTEFDYWGQGTLVTVSS
VL: DIVMTQSPDSLAVSLGERATINCKSSESVDSYANSFLHWYQQKPGQPPKLLIYRASTRESGVPDRFSGSGSGTDFTLTISSLQAEDVAVYYCQQSKEDPLTFGGGTKVEIK
notes: also called Humanized h224G11; 224G11 IgG4(S228P)
B2: MH7-3 (antibody, human IgG4, V domains shown)
VH: QVQLVQSGAEVKKPGASVKVSCKASGYTFTSYTMHWVRQAPGQGLEWMGIINPSGGSTSYAQKFQGRVTMTRDTSTSTVYMELSSLRSEDTAVYYCARQEITTEFDYWGQGTLVTVSS
VL: EIVLTQSPGTLSLSPGERATLSCRASQSVSSYAQSYLHWYQQKPGQAPRLLIYRGSTRETGIPDRFSGSGSGTDFTLTISRLEPEDFAVYYCQQSKESPLTFGGGTKVEIK
B3: MH7 (antibody, human IgG4, V domains shown)
VH: B2 VH
VL: B2 VL with Q34N, T60S, E97S, S98E
B4: MH8 (antibody, IgG4, V domains shown)
VH: B2 VH
VL: B2 VL with K96G, E97S
B5: MH10 (antibody, IgG4, V domains shown)
VH: B2 VH with T33A, I50W
VL: B2 VL with Q34N, T60S, E97S, S98E
B6: MH7-2 (antibody, human IgG4, V domains shown)
VH: B2 VH
VL: B2 VL with Q34N

target: T1, human C-MET His tagged, monomeric (human, UniProt P08581 25-932); experiment: Alphascreen epitope competition in solution: varied IgG4(S228P) against 224G11 IgG4(S228P) binding to biotinylated human C-MET, CPS (crosstalk-corrected)
T1 construct: also called monomeric human C-MET; biotinylated human C-MET-His
Description: FIG. 7. Epitope competition analysis of IgG4(S228P) proteins in Alphascreen. Anti-Humanized h224G11, Grafted clone (Graft) and clones 08G07, MH7, MH7-1, MH7-2, MH7-3 in human IgG4(S228P) format were titrated (in nM) in an epitope competition assay using Alphascreen technology. In this assay, library-derived and designer IgGs were analysed for their retention of the parental 224G11 epitope by competing for 224G11 IgG4(S228P) binding to human C-MET protein, in solution.
The AlphaScreen assay (Perkin Elmer) was performed in a 25 μl final volume in 384-well white microtiter plates (Greiner). The reaction buffer contained 1×PBS pH 7.3 (Oxoid, Cat. nr. BR0014G) and 0.05% (v/v) Tween® 20 (Sigma, Cat. nr. P9416). Purified IgG samples were titrated in three fold serial dilutions starting at 50 nM final concentration and incubated with biotinylated human C-MET-His (Acrobiosystems) at 1 nM final concentration for 20 minutes at room temperature. The parental IgG and the anti-human IgG4(S228P) Acceptor beads at were added and the mix was incubated for 1 hour at room temperature. Followed by addition of the Streptavidin Donor beads and incubation for 30 minutes at room temperature. The emission of light was measured in the EnVision multilabel plate reader (Perkin Elmer) and analysed using the EnVision manager software. Values were reported as Counts Per Second (CPS) and corrected for crosstalk. […]

T1 sequence (P08581 25-932): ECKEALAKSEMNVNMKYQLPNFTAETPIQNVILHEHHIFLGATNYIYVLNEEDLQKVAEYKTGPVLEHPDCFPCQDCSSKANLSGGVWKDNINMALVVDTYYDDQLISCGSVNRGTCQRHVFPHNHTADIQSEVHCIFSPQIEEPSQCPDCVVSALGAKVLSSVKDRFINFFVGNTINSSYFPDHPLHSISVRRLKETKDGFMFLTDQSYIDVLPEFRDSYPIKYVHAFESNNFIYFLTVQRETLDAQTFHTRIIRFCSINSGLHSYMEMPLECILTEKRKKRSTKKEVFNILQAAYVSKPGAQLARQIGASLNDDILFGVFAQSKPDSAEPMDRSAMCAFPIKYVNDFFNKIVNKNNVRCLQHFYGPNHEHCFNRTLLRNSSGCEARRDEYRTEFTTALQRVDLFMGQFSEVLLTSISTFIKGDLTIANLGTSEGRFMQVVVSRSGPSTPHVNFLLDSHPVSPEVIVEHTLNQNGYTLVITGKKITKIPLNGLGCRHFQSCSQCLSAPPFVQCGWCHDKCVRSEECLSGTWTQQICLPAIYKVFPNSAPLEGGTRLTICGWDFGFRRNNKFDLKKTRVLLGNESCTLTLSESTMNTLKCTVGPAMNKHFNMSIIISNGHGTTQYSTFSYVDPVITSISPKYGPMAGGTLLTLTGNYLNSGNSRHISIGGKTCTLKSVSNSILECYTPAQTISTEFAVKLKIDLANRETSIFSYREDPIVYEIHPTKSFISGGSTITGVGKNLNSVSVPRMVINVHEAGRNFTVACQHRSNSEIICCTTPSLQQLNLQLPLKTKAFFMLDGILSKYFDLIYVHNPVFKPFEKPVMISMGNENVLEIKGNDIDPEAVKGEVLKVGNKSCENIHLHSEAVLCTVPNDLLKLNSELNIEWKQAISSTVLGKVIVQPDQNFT

Binder | IC50 (read off the curve) [nM]
B1 | ~0.2
B2 | ~0.2

target: T2, human C-MET on stably transfected CHO-K1 cells (human, UniProt P08581 25-1390); experiment: flow cytometry, C-MET CHO-K1 cells
T2 construct: also called hucMET; human C-MET+ CHO-K1 cells
Description: (§1) Purified IgGs were tested in FACs for binding to human and cyno C-MET expressed on CHO-K1 stable cell lines and CHO-K1 wild-type cells. The IgG samples were titrated in three-fold serial dilutions starting at 500 nM to 0.08 nM. Binding of IgGs was detected with a mouse anti-human IgG conjugated to FITC. Results were analyzed by examining the Mean Fluorescence Intensity (MFI) of 10000 cells per sample in the BL-1 channel detector of a flow cytometer (Attune™ NxT Acoustic Focusing Cytometer, Invitrogen/ThermoFisher Scientific).
(§2) Antibodies to C-MET were analysed for concentration-dependent binding at the cell surface via flow cytometry. CHO-K1 cells were stably transfected with either human or cyno C-MET full-length cDNAs. Anti-C-MET IgGs and an isotype control IgG4(S228P) were then all tested in IgG4(S228P) format, over a concentration range of 500-0.08 nM for binding to human (FIG. 5A) and cyno (FIG. 5B) CHO-K1 cells.

T2 sequence (P08581 25-1390 limits assumed): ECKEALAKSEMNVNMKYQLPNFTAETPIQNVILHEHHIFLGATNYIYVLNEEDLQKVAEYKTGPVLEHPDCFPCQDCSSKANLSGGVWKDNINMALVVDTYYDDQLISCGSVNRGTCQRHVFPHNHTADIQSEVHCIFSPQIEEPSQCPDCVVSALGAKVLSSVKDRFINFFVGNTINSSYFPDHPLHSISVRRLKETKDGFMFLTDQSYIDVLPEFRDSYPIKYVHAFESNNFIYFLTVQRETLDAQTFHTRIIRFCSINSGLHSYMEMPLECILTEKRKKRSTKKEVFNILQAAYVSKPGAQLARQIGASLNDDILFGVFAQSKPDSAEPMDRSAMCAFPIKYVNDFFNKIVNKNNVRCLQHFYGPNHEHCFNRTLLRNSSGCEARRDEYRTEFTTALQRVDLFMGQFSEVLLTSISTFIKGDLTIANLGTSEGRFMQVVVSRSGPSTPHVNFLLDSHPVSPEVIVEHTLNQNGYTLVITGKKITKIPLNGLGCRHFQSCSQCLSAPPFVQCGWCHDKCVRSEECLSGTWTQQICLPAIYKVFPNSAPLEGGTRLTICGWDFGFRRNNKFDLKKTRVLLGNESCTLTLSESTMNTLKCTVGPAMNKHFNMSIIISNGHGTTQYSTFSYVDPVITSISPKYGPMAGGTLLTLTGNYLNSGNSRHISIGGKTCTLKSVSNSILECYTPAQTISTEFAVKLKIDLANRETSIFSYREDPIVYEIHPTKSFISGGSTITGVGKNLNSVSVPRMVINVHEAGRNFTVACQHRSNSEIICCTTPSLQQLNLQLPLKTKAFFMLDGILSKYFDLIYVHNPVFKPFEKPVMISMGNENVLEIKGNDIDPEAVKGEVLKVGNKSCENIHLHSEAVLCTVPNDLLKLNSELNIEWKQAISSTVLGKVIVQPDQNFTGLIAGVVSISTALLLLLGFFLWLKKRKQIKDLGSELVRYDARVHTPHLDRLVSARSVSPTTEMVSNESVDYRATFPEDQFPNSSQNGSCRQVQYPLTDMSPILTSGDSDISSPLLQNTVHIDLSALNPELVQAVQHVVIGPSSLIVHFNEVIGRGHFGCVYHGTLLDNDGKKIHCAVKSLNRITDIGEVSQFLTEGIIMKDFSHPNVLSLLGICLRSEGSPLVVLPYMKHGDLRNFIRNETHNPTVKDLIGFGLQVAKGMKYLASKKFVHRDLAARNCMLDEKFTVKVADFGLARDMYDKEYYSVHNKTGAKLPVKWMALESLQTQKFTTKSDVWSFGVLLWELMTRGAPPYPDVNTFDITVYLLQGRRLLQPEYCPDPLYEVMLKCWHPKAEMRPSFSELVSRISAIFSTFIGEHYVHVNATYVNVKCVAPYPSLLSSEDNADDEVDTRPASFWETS

Binder | maximum MFI, fold over Isotype IgG4 background [fold]
B1 | > 10
B3 | > 10
B2 | > 10
B4 | > 10
B5 | > 10
B6 | > 10

target: T3, cynomolgus monkey C-MET on stably transfected CHO-K1 cells (cynomolgus monkey, UniProt A0M8R7 25-1381 (Papio anubis entry)); experiment: flow cytometry, C-MET CHO-K1 cells
T3 construct: also called cycMET; cyno C-MET+ CHO-K1 cells
Description: as §1, §2

T3 sequence (A0M8R7 25-1381 S170N/I621T limits assumed): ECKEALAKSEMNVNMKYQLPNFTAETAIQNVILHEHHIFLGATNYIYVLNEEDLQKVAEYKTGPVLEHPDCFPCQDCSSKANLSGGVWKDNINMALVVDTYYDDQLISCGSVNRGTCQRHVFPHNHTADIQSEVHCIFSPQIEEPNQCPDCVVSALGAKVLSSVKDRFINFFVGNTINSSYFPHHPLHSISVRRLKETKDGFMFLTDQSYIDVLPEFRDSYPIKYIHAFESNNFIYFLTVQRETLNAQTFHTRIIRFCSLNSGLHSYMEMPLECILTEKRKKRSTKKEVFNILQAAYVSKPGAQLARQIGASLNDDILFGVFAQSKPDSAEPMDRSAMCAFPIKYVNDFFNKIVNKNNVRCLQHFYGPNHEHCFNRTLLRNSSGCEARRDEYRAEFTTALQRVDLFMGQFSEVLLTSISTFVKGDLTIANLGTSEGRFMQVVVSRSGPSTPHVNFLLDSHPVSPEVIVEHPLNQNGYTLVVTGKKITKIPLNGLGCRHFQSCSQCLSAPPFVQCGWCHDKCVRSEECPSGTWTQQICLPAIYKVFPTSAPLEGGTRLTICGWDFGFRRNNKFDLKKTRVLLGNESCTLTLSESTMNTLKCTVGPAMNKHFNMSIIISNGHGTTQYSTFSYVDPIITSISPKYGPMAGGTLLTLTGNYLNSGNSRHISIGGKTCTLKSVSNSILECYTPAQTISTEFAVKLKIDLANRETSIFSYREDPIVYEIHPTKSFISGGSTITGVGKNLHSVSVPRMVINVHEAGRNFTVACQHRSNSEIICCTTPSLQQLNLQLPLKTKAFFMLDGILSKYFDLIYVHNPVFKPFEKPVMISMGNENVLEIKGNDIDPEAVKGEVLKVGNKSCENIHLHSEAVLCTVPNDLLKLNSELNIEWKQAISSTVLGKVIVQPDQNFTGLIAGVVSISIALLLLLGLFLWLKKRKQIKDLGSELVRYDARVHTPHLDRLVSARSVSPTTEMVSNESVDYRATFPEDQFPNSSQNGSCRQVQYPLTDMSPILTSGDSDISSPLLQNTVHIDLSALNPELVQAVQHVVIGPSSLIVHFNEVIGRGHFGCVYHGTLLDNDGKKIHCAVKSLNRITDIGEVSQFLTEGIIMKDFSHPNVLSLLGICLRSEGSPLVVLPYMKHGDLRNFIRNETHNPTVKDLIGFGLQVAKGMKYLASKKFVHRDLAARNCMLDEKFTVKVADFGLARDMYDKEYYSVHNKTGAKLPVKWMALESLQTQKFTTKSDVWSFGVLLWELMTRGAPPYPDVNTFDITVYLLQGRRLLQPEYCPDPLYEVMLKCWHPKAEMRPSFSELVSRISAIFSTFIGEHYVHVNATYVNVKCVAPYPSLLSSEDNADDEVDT

Binder | maximum MFI, fold over Isotype IgG4 background [fold]
B1 | > 10
B3 | > 10
B2 | > 10
B4 | > 10
B5 | > 10
B6 | > 10

target: T4, cynomolgus monkey C-MET human Fc tagged recombinant protein (cynomolgus monkey, UniProt A0M8R7 25-932 (Papio anubis entry), limits assumed); experiment: direct titration ELISA on coated cyno C-MET-Fc, IgG4(S228P), OD 450 nm
T4 construct: also called cyno C-MET-Fc; cyCMET
Description: (§3) FIG. 6A-FIG. 6B. Direct titration ELISA for IgG binding to human and cyno C-MET-Fc proteins. Humanized h224G11, Grafted clone (Graft) and clones 08G07, MH7, MH7-1, MH7-2, MH7-3 in human IgG4(S228P) format were titrated (in nM) in a direct binding ELISA against human (FIG. 6A) and cyno (FIG. 6B) C-MET-Fc proteins.
(§4) Binding and cross-reactivity of the lead panel to the recombinant proteins was initially assessed by binding ELISA. The human C-MET human Fc tagged recombinant protein and the cynomolgus monkey C-MET human Fc tagged recombinant protein were coated to the surface of MaxiSorp™ flat-bottom 96 well plate at 1 μg/ml. The purified IgG samples were titrated in two fold serial dilutions starting from 500 nM to 0.98 nM and allowed to bind to the coated antigens. The Fabs were detected using mouse anti-c-myc antibody followed by donkey anti-mouse IgG conjugated to horseradish peroxidase. The IgGs were detected using the mouse anti-human IgG conjugated to horseradish peroxidase. Binding signals were visualized with 3,3′,5,5′-Tetramethylbenzidine Substrate Solution (TMB) and the absorbance measured at 450 nm. IgG binding analysis via ELISA on negatively charged biomolecular surfaces to calculate off-target binding and PK risk were performed as previously described (see Avery et al., 2018, MAbs 10 (2), 244-255).

T4 sequence (A0M8R7 25-932 S170N/I621T limits assumed): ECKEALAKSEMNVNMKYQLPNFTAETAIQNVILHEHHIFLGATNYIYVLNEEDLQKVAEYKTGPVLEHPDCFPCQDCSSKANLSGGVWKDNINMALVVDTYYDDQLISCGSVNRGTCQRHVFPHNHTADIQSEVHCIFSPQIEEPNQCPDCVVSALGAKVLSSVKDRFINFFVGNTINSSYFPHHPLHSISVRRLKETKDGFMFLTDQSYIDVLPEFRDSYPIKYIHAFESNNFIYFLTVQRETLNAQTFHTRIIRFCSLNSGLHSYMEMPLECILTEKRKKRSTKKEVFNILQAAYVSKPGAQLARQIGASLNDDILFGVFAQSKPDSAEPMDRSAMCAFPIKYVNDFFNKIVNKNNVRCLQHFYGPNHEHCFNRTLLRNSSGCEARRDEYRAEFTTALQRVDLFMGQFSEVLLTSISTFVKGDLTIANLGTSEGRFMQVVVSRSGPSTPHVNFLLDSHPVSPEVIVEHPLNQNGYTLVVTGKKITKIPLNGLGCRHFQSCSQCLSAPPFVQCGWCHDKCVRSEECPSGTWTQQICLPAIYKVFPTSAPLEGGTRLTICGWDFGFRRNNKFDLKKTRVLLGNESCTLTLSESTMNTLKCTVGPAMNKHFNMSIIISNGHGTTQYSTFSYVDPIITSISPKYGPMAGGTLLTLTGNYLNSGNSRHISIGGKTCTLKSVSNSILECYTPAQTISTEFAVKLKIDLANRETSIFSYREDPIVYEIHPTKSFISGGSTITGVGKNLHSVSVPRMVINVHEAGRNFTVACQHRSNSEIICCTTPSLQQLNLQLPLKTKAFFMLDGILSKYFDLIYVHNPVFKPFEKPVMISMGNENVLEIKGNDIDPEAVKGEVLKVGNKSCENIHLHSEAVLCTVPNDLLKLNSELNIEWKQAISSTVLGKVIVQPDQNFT

Binder | EC50 (read off the curve) [nM]
B1 | ~0.2
B6 | ~0.2

target: T5, Insulin; experiment: polyreactivity ELISA on insulin; set-up: scale not given here
T5 construct: Coated surface of the polyreactivity (development risk) ELISA
T5 sequence (P01308 25-54, chain 1 of 2): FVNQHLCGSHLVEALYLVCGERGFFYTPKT
T5 sequence (P01308 90-110, chain 2 of 2): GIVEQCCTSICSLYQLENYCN

Binder | reactivity score
B1 | 1
B3 | 1
B2 | 1
B6 | 1

target: T6, cynomolgus monkey C-MET His tag, monomeric (cynomolgus monkey, UniProt A0M8R7 25-932 (Papio anubis entry)); experiment: SPR Biacore, monomeric cyno against monomeric human C-MET
T6 construct: also called monomeric cyno C-MET; cyCMET
Description: (§5) Affinity (KD) of purified IgGs was determined via SPR with antigen in-solution on a Biacore® 3000 (GE). A mouse anti-human antibody (CH1 specific) was immobilized on a CM5 Sensor Chip to a level of 2000 RU in acetate buffer at pH 4.5 using amine coupling following the Wizard instructions for two channels. One channel was used for background signal correction. The standard running buffer HBS-EP pH 7.4 was used. Regeneration was performed with a single injection of 10 μl of 10 mM Glycine at pH 1.5 at 20 μl/minute. IgG samples were injected for 2 minutes at 50 nM at 30 μl/min followed by and off-rate of 60 seconds. The monomeric antigen (human C-MET His tagged or cynomolgus monkey C-MET His tag) was injected in two fold serial dilutions from 100 nM down to 6 nM, for 2 minutes at 30 μl/min followed by an off-rate of 300 seconds. The obtained sensorgrams were analysed using the Biacore® 3000 evaluation (BIAevaluation) software. The KD was calculated by simultaneous fitting of the association and dissociation phases to a 1:1 Langmuir binding model.

T6 sequence (A0M8R7 25-932 S170N/I621T): as the sequence (A0M8R7 25-932 S170N/I621T limits assumed) above

Binder | cyno C-MET affinity, fold of the human C-MET affinity [fold]
B3 | ≤ 2

target: T3, cynomolgus monkey C-MET on stably …; experiment: flow cytometry on cyno C-MET-transfected CHO-K1 cells, IgG4(S228P), MFI
Description: FIG. 8A-FIG. 8C. Flow cytometric binding to human and cyno C-MET+ CHO-K1 cells for library-derived and primary designer leads. Humanized h224G11, Grafted clone (Graft) and clones 08G07, MH7, MH7-1, MH7-2, MH7-3 in human IgG4(S228P) format were examined for specific binding on human C-MET-transfected (FIG. 8A), cyno C-MET-transfected (FIG. 8B) and untransfected (FIG. 8C) CHO-K1 cells. IgGs were tested at concentrations ranging from 500-0.08 nM. Concentration-dependent binding was observed against both human and cyno cell lines for all C-MET-specific antibodies but not isotype control IgG4.
as §1

Binder | EC50 (read off the curve) [nM]
B1 | ~0.7
B6 | ~0.5

target: T2, human C-MET on stably transfected …; experiment: flow cytometry, C-MET CHO-K1 cells; remark: another data set of the same source
Description: as §1

Binder | EC50 [nM]
B1 | 6.83
B3 | 1.14
B4 | 1.24
B5 | 2.14

target: T3, cynomolgus monkey C-MET on stably …; experiment: flow cytometry, C-MET CHO-K1 cells; remark: another data set of the same source
Description: as §1

Binder | EC50 [nM]
B1 | 0.82
B3 | 0.54
B4 | 0.57
B5 | 0.46

target: T1, human C-MET His tagged, monomeric; experiment: SPR Biacore
Description: as §5

Binder | fold loss of KD against MH7 [fold] | fold reduction in binding affinity against MH4 [fold]
B4 | 10 to 20 | 
B5 |  | ~2

target: T6, cynomolgus monkey C-MET His tag, …; experiment: SPR Biacore
Description: as §5

Binder | fold loss of KD against MH7 [fold]
B4 | 10 to 20

target: T7, human C-MET human Fc tagged recombinant protein (human, UniProt P08581 25-932); experiment: direct titration ELISA on coated human C-MET-Fc, IgG4(S228P), OD 450 nm
T7 construct: also called human C-MET-Fc; huCMET
Description: as §3, §4

T7 sequence (P08581 25-932 limits assumed): as the sequence (P08581 25-932) above

Binder | EC50 (read off the curve) [nM]
B1 | ~0.3
B6 | ~0.3

target: T1, human C-MET His tagged, monomeric; experiment: SPR Biacore, IgG captured, monomeric C-MET-His analyte
Description: as §5

Binder | Kd [nM] | koff [s⁻¹] | kon [M⁻¹ s⁻¹]
B1 | 0.47 | 4.2e-05 | 90000
B3 | 0.3 | 2.9e-05 | 98000
B2 | 1.31 | 0.000123 | 94400
B4 | 2.2 | 0.00015 | 66000
B5 | 0.63 | 4.4e-05 | 71000
B6 | 2.12 | 0.000198 | 93200

target: T6, cynomolgus monkey C-MET His tag, …; experiment: as above
Description: as §5

Binder | Kd [nM] | koff [s⁻¹] | kon [M⁻¹ s⁻¹]
B1 | 0.46 | 0.00011 | 250000
B3 | 0.19 | 5.2e-05 | 270000
B2 | 1.03 | 0.000174 | 168000
B4 | 1.3 | 0.00021 | 160000
B5 | 0.2 | 3.6e-05 | 180000
B6 | 0.87 | 0.000159 | 183000

From patent US20260042850A1 (LOCKBODY THERAPEUTICS, published 2026)
